Consider three molecules from paper PMC8888459 (2022).

The labels stand for the following.
T1: NIA complex (Nfs1–Isd11–ACPEc) (S. cerevisiae | E. coli (endogenous in …, UniProt P25374 37-497; Q6Q560 1-94; P0A6A8 1-78)
T1 chain 1: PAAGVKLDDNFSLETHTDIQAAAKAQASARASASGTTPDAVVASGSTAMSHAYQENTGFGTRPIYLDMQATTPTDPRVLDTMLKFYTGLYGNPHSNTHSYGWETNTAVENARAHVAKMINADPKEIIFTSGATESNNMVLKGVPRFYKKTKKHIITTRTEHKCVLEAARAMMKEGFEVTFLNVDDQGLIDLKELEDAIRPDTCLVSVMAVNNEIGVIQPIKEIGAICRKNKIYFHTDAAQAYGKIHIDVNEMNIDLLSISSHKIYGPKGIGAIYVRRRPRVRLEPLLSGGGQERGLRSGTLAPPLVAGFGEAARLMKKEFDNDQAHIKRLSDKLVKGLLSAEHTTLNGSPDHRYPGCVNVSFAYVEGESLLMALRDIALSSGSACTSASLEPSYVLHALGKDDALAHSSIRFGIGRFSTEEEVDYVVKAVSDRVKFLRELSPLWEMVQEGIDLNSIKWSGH
T1 chain 2: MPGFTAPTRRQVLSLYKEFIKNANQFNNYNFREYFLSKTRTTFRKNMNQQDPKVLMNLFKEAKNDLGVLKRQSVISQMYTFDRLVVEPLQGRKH
T1 chain 3: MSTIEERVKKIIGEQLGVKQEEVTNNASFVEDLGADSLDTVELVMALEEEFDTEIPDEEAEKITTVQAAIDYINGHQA

B1: NIA–Isu1 complex with S. cerevisiae Isu1 (complex)
chain 1: T1 chain 1
chain 2: T1 chain 2
chain 3: T1 chain 3
chain 4: SSITKRLYHPKVIEHYTHPRNVGSLDKKLPNVGTGLVGAPACGDVMRLQIKVNDSTGVIEDVKFKTFGCGSAIASSSYMTELVQGMTLDDAAKIKNTEIAKELSLPPVKLHCSMLAEDAIKAAIKDYKSKRNTPTMLS
B2: Yah1-GST fusion protein (natural protein)
chain: IAAHLLRTSPSLLTRTTTTTRFLPFSTSSFLNHGHLKKPKPGEELKITFILKDGSQKTYEVCEGETILDIAQGHNLDMEGACGGSCACSTCHVIVDPDYYDALPEPEDDENDMLDLAYGLTETSRLGCQIKMSKDIDGIRVALPQMTRNVNNNDFS
B3: Yah1 (untagged, holo) (natural protein)
chain: B2 chain

Test [1] has as its target B2. In words: BLI; anaerobic, reduced Yah1; kd1 of 2:1 fit.
Test [2] concerns the target B2. In words: BLI; kd1 of 2:1 fit. Background: BLI is a label-free optical method that tracks binding on a fibre tip over time.
Test [3] deals with B2. Description: BLI; anaerobic, reduced Yah1; KD1 of 2:1 fit (37%).
Test [4] deals with B2. Description: BLI; KD1 of 2:1 heterogeneous ligand fit (38%).
Test [5] deals with B2. Description: BLI; anaerobic, reduced Yah1 (Fig. 6C); KD1 of 2:1 fit (45%).
Test [6] addresses B2. Description: BLI; kd2 of 2:1 fit, second site.
For test [7], the target named is B2. In words: BLI; anaerobic, reduced Yah1; kd2 of 2:1 fit, second site.
Test [8] has as its target B2. Description: BLI; anaerobic, reduced Yah1 (Fig. 6C); kd2 of 2:1 fit, second site.
Test [9] concerns the target B2. Description: BLI; anaerobic, reduced Yah1; KD2 of 2:1 fit (63%), second site.
For test [10], the target named is B2. Description: BLI; anaerobic, reduced Yah1 (Fig. 6C); KD2 of 2:1 fit (55%), second site.
Test [11] has as its target B2. In words: BLI; KD2 of 2:1 heterogeneous ligand fit (62%), second site.
Test [12] addresses B2. In words: BLI; anaerobic, reduced Yah1 (Fig. 6C); kd1 of 2:1 fit.
The target of test [13] is T2, NIA–Isu1 complex with C. thermophilum Isu1 (S. cerevisiae | E. coli (endogenous in …, UniProt P25374 37-497; Q6Q560 1-94; P0A6A8 1-78). Description: BLI; KD1 of 2:1 heterogeneous ligand fit (43%).
For test [14], the target named is T2, NIA–Isu1 complex with C. thermophilum …. In words: BLI; kd2 of 2:1 fit, second site.
For test [15] the target is unchanged. In words: BLI; KD2 of 2:1 heterogeneous ligand fit (57%), second site.
Test [16] has the same target. In words: BLI; kd2 of 2:1 fit, second site. This is another data set of the same source.
The target is the same in test [17]. Description: BLI; KD1 of 2:1 heterogeneous ligand fit (46%).
For test [18] the target is unchanged. In words: BLI; KD2 of 2:1 heterogeneous ligand fit (54%), second site.
Test [19] has the same target. In words: BLI; kd1 of 2:1 fit.
Test [20] has the same target. Description: BLI; kd1 of 2:1 fit. This is another data set of the same source.
In test [21] the target is T1, NIA complex (Nfs1–Isd11–ACPEc). In words: BLI; KD1 of 2:1 heterogeneous ligand fit (61%).
Test [22] shares this target. In words: BLI; kd2 of 2:1 fit, second site.
The target is the same in test [23]. In words: BLI; KD2 of 2:1 heterogeneous ligand fit (39%), second site.
The target is the same in test [24]. Description: BLI; kd1 of 2:1 fit.

In general, koff refers to the first-order rate constant of dissociation. Read a high koff as fast dissociation. The term Kd denotes the concentration at which binding is half-saturated. Read a high Kd as a looser complex. On to B1, for which the koff amounted to 4.05e-07 s⁻¹ in the test with Yah1-GST fusion protein [1]; 0.000977 s⁻¹ with Yah1-GST fusion protein [2]; 0.0375 s⁻¹ with Yah1-GST fusion protein [6]; 0.00421 s⁻¹ with Yah1-GST fusion protein [7]; 0.00777 s⁻¹ with Yah1-GST fusion protein [8]; 4.99e-07 s⁻¹ in the test with Yah1-GST fusion protein [12]. Besides, the Kd with Yah1-GST fusion protein [3] is 0.0165 nM; in the test with Yah1-GST fusion protein [4], 325 nM; with Yah1-GST fusion protein [5] it was 0.02 nM; with Yah1-GST fusion protein [9] it was 15.3 nM; with Yah1-GST fusion protein [10], 19.2 nM; with Yah1-GST fusion protein [11], 660 nM.
As to B2, the Kd is 184 nM in test [13], 800 nM in [15], 228 nM in [17] and 212 nM in test [18]. Moreover, the koff is 0.0403 s⁻¹ in test [14], 0.109 s⁻¹ in [16], 0.00118 s⁻¹ in [19] and 0.00167 s⁻¹ in test [20].
B3: the values for the Kd in test [21] and in [23] were 0.307 nM and 544 nM, respectively. Also, the koff was 0.00156 s⁻¹ in test [22] and 2.08e-07 s⁻¹ in test [24].
